Results as given in publication PMC9220312.

Target: mouse thrombomodulin (endogenous, lung) (mouse (endogenous in mouse lung)) (UniProt P15306)
Chain of UniProt P15306 (P15306 17-577): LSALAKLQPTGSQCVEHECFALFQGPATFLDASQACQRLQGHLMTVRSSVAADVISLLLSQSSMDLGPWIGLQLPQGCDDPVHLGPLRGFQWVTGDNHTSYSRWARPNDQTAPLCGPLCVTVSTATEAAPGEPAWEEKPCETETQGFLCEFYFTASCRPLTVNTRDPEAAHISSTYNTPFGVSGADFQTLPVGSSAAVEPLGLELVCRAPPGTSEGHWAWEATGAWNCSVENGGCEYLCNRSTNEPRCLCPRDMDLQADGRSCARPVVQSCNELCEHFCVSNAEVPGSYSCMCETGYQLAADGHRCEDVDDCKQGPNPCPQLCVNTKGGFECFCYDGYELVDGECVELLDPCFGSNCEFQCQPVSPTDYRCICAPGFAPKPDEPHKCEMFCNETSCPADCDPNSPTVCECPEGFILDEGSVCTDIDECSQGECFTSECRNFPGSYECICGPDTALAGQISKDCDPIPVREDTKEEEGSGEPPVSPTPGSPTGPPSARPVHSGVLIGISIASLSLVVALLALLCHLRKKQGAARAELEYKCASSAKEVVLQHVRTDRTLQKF

“recombinant human His-tagged fragment of Angiopoietin-2 (ab220589, Abcam) (from UniProt O15123 19-496) (domain or fragment)” was tested. Which tail bleeding time in mice 2 h after i.p. injection of 8 nmol human ANGPT2 did it give?
Its tail bleeding time in mice 2 h after i.p. injection of 8 nmol human ANGPT2 is 50%.
